From paper PMC9418451 come the findings set out here.

One assay deals with SecYEG (UniProt P0AGA2). Briefly: high-speed atomic force microscopy.
The next assay deals with SecYEG G297LBT (UniProt P0AGA2). Briefly: FRET or BRET.

pKd: −log10 of the molar value.

A word on the pKd: it is −log10 of the Kd, conventionally taken in molar units. In the assay with SecYEG, “SecA (from UniProt P10408 1-901) (natural protein)” gave a pKd of 8.00, a tau off (time constant of the periods in which SecA was bound) of 1.1 s and a tau on (time constant of the unbound periods until SecA rebinds) of 1.7 s.

“SecA(N95) K797C labeled with Atto488 (from UniProt P10408 1-901) (natural protein)”: the occupancy of SecYEG molecules by SecA in the assay with SecYEG G297LBT was 10%.
